Assay results from patent US20180305450A1 (AstraZeneca / MedImmune, published 2018).
Changes are numbered by the printed parent chain. Names and notes keep the numbering of the source.

What was measured:
[1] = target: T1, human PAR2 on cells (endogenous in A549 cells; overexpressed in 1321N1-hPAR2-c18 cells) (human, UniProt P55085 37-397); assay: cell-based or functional assay
T1 sequence: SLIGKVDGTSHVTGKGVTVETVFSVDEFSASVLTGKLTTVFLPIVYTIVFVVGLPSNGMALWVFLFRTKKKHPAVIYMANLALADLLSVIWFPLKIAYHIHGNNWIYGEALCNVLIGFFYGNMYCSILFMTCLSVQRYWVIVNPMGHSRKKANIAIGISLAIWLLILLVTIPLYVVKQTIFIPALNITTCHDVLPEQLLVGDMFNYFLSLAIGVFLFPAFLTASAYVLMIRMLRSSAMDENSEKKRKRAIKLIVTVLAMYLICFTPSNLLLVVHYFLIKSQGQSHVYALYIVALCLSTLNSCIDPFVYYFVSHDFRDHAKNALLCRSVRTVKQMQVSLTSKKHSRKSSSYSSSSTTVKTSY

[2] = target: T2, recombinant biotinylated human PAR2 extracellular domain (residues 1-75), N-terminal AviTag, C-terminal Flag … (human, UniProt P55085 26-75, biotin on the AviTag (enzymatic biotinylation)); assay: HTRF competition with Dylight650-Par0067 IgG, IgG
T2 construct: also called Bio-human-PAR2 ECD; human PAR2 ECD; not shown: N-terminal AviTag (Avidity LLC); C-terminal Flag and poly Histidine tags
Experimental: (§1) Parent Par0067 IgG (used as a reference/control in all assays) was pre-diluted to give a 2000 nM stock in each of the two different pH assay buffers (in order to give a top final assay IgG concentration of 500 nM). All test, or other reference/control IgG were tested from a top final assay concentration of ¼ of the neat undiluted sample (i.e. no pre-dilution step was performed). Duplicate 11 point 1:3 serial dilutions then were prepared on 384 well polypropylene Greiner plates in each of the two assay buffers (pH 7.4 & 6.0). 5 μl per well was transferred from the relevant pH IgG dilution plate to the corresponding assay plate (pH 7.4 and pH 6.0). 5 ul of the appropriate pH assay buffer was added to the total and non-specific wells.
(§2) For multipoint dose response curves % Specific Binding values were plotted versus test purified antibody concentration (scFv or IgG). IC₅₀ values were determined via a sigmoidal dose response inhibition variable slope curve fit (4 parameter logistic equation) using Graphpad Prism Software.

[3] = target: T2, recombinant biotinylated human PAR2 …; assay: HTRF competition with Dylight650-Par0067 IgG, pH 7.4, IgG
Experimental: as §1, §2

[4] = target: T2, recombinant biotinylated human PAR2 …; assay: HTRF competition with Dylight650-Par0067 IgG, pH 6.0, IgG
Experimental: as §1, §2

[5] = target: T2, recombinant biotinylated human PAR2 …; assay: Biacore SPR 25 C, pH 6.0
Experimental: (§3) The experiments were carried out using recombinant human, rat and cynomolgus PAR2 with an N-terminal Avi tag and C-terminal Flag-His tags.
(§4) Streptavidin was covalently immobilised to a C1 chip surface using standard amine coupling techniques at a concentration of 4 μg/ml in 10 mM Sodium acetate pH 4.5. A final streptavidin surface of approximately 30-100 RUs was achieved. Recombinant biotinylated PAR2 species (produced in-house) were titrated onto the streptavidin chip surface at 4 μg/ml in HBS-EP+ buffer to enable Fab binding at saturation (Rₘₐₓ). This low level of analyte binding ensured minimal mass transport effects.
(§5) The anti-PAR2 Fabs were serially diluted (0.39 nM-25 nM) in HBS-EP+ buffer pH 7.4 or MES-BS-EP+ pH 6.0 buffer or in MES-BS-EP+ pH 5.6 buffer and flowed over the chip at 50 μl/min, with 3 minutes association and up to 30 minutes dissociation. Multiple buffer-only injections were made under the same conditions to allow for double reference subtraction of the final sensorgram sets, which were analysed using the BiaEval software (version 2.0.1). The chip surface was fully regenerated with pulses of 4 M MgCl₂.

[6] = target: T3, recombinant biotinylated rat PAR2 extracellular residues 1-75, N-terminal AviTag, C-terminal Flag and poly … (rat, UniProt Q63645 26-75, not fully specified; biotin on the AviTag (enzymatic biotinylation)); assay: Biacore SPR 25 C, pH 6.0
T3 construct: range 1-75; not shown: N-terminal AviTag (Avidity LLC); C-terminal Flag and poly Histidine tags
T3 chain (looked up): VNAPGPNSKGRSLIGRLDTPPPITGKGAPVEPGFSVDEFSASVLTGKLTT
Experimental: as §3, §4, §5

[7] = target: T2, recombinant biotinylated human PAR2 …; assay: Biacore SPR 25 C, pH 7.4
Experimental: as §3, §4, §5

[8] = target: T3, recombinant biotinylated rat PAR2 …; assay: Biacore SPR 25 C, pH 7.4
Experimental: as §3, §4, §5

[9] = target: T2, recombinant biotinylated human PAR2 …; assay: Biacore SPR 25 C, pH 6.0; pH 6.0; human PAR2
Experimental: as §3, §4, §5

[10] = target: T2, recombinant biotinylated human PAR2 …; assay: Biacore SPR 25 C, pH 6.0; remark: listed apart in the source
Experimental: as §3, §4, §5

[11] = target: T3, recombinant biotinylated rat PAR2 …; assay: Biacore SPR 25 C, pH 6.0
Experimental: as §3, §4, §5

[12] = target: T2, recombinant biotinylated human PAR2 …; assay: Biacore SPR 25 C, pH 7.4; remark: listed apart in the source
Experimental: as §3, §4, §5

[13] = target: T3, recombinant biotinylated rat PAR2 …; assay: Biacore SPR 25 C, pH 7.4
Experimental: as §3, §4, §5

T2 sequence (P55085 26-75): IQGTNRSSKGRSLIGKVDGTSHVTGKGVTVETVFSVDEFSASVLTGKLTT

B1: PaB670129 IgG1TM (antibody, V domains shown)
VH: EVQLLESGGGLVQPGGSLRLSCAASGFTFSSYAMNWVRQAPGKGLEWVSTISYHGSHISYHDSVHHRFTISRDNSKNTLYLQMNSLRAEDTAVYYCARIHHDPMDVWGQGTLVTVSS
VL: SIELTQPPSVSVSPGQTASITCSGDNLGKKYVQWYQQKPGQSPVLVIYDDSNRPSGIPERFSGSNSGNTATLTISGTQAMDEADYYCQTWDGNPTTGETNVFGGGTKLTVL
notes: IgG1-TM (L234F, L235E, P331S), human lambda light chain; also called ZZ1RUE-F02
B1 was tested, and the “IC50 (read off the curve); calcium response to trypsin in presence of PaB670129, human A549 cells” value [1] was about 0.1 nM, the “Fold IC50 pH 7.4 (Variant v Par0067)” value [2] was 67.2 fold and the IC50 [3] was 56.1 nM.

B2: PaB670158 IgG (antibody, V domains shown)
VH: B1 VH with S56H, H61A, V64H, H100N, H101N
VL: B1 VL with N93H, P94H, T95H, V101H
notes: IgG1-TM (L234F, L235E, P331S), human lambda light chain
B2 was tested, and the “Fold IC50 (pH 6.0 v pH 7.4)” value [2] was 69.8 fold, the “Fold IC50 pH 7.4 (Variant v Par0067)” value [2] was 8.2 fold and the IC50 [4] was 477 nM. It also gave an IC50 [3] of 6.8 nM.

B3: PaB670162 IgG (antibody, V domains shown)
VH: B1 VH with S56H, H61A, V64H, H100N, H101N
VL: B1 VL with Q88H, N93H, P94H, V101H
notes: as for B2
In the case of B3, the “Fold IC50 (pH 6.0 v pH 7.4)” value [2] is reported as 79.5 fold, the “Fold IC50 pH 7.4 (Variant v Par0067)” value [2] is reported as 13.7 fold and the IC50 [4] is reported as 906 nM. For the same binder, the IC50 [3] was 11.4 nM.

B4: PaB670156 IgG (antibody, V domains shown)
VH: B1 VH with H54S, H57L, H61A, H65K, H66G, H100N
VL: B1 VL with N93H, P94H, T95H, V101H
notes: as for B2
For B4, the “Fold IC50 (pH 6.0 v pH 7.4)” value [2] was 27.2 fold, the “Fold IC50 pH 7.4 (Variant v Par0067)” value [2] was 8.4 fold and the IC50 [4] was 190 nM. It also gave an IC50 [3] of 7 nM.

B5: PaB670136 Fab (Fab, V domains shown)
VH: B1 VH with S56H, H61A, V64H, V106H
VL: B1 VL
notes: Fab; also called ZZ1RUF-A01
For B5, the Kd [5] was 18.8 nM, the Kd [6] was 37.5 nM and the koff [6] was 0.0589 s⁻¹. The kon [6] was 1.57e+06 M⁻¹ s⁻¹, the Kd [7] was 0.957 nM and the koff [7] was 0.00495 s⁻¹. For the same binder, the kon [7] was 5.17e+06 M⁻¹ s⁻¹, the Kd [8] was 4.15 nM and the koff [8] was 0.0314 s⁻¹. For the same binder, the kon [8] was 7.57e+06 M⁻¹ s⁻¹, the koff [9] was 14.9 s⁻¹ and the kon [9] was 7.92e+08 M⁻¹ s⁻¹.

B6: PaB670048 Fab (Fab, V domains shown)
VH: B1 VH with H54S, H57L, H61A, H65K, H66G, V106H
VL: B1 VL
notes: Fab; also called ZZ1KX4-E11
With B6 the Kd [5] was 2.57 nM, the koff [5] was 0.00497 s⁻¹ and the kon [5] was 1.94e+06 M⁻¹ s⁻¹. For the same binder, the Kd [6] was 5.12 nM, the koff [6] was 0.0205 s⁻¹ and the kon [6] was 4e+06 M⁻¹ s⁻¹. The Kd [7] was 0.124 nM, the koff [7] was 0.000519 s⁻¹ and the kon [7] was 4.2e+06 M⁻¹ s⁻¹. It also gave a Kd [8] of 0.586 nM, a koff [8] of 0.00307 s⁻¹ and a kon [8] of 5.24e+06 M⁻¹ s⁻¹. It also gave a Kd [10] of 2.49 nM, a koff [10] of 0.00458 s⁻¹ and a kon [10] of 1.84e+06 M⁻¹ s⁻¹. It also gave a Kd [11] of 4.48 nM, a koff [11] of 0.0217 s⁻¹ and a kon [11] of 4.84e+06 M⁻¹ s⁻¹. It also gave a Kd [12] of 0.104 nM, a koff [12] of 0.00058 s⁻¹ and a kon [12] of 5.59e+06 M⁻¹ s⁻¹. It also gave a Kd [13] of 0.435 nM, a koff [13] of 0.00325 s⁻¹ and a kon [13] of 7.46e+06 M⁻¹ s⁻¹.

B7: PaB670161 IgG (antibody, V domains shown)
VH: B1 VH with H54S, H57L, H61A, H65K, H66G
VL: B1 VL with Q88H, N93H, P94H, V101H
notes: as for B2
With B7 the “Fold IC50 (pH 6.0 v pH 7.4)” value [2] was 39.6 fold, the “Fold IC50 pH 7.4 (Variant v Par0067)” value [2] was 57.4 fold and the IC50 [4] was 1900 nM. It also gave an IC50 [3] of 47.9 nM.

B8: PaB670157 IgG (antibody, V domains shown)
VH: B1 VH with H54S, H57L, H61A, H65K, H66G
VL: B1 VL with N93H, P94H, T95H, V101H
notes: as for B2
In the case of B8, the “Fold IC50 (pH 6.0 v pH 7.4)” value [2] is reported as 59 fold, the “Fold IC50 pH 7.4 (Variant v Par0067)” value [2] is reported as 18.9 fold and the IC50 [4] is reported as 932 nM. The IC50 [3] was 15.8 nM.

B9: PaB670160 IgG (antibody, V domains shown)
VH: B1 VH with H54S, H57L, H61A, H65K, H66G, H100N
VL: B1 VL with Q88H, N93H, P94H, V101H
notes: as for B2
With B9 the “Fold IC50 (pH 6.0 v pH 7.4)” value [2] was 37.5 fold, the “Fold IC50 pH 7.4 (Variant v Par0067)” value [2] was 20.2 fold and the IC50 [4] was 634 nM. For the same binder, the IC50 [3] was 16.9 nM.
